According to the nanobody polyreactivity screen of Harvey et al. (2022):

Assay: yeast display, Sf9 membrane polyspecificity reagent, FACS + sequencing; frameworks hold sequencing errors
How it was run: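 Galactose induction of a Saccharomyces cerevisiae BJ5465 synthetic nanobody display library ran 36–48 hours. The cells were then stained for 1 hour at 4 °C with 10% biotinylated, detergent-solubilized Sf9 membrane reagent, pulled down on streptavidin microbeads and FACS-sorted into low and high (top ~1%) gates on expression and reagent-binding fluorescence. Labels for polyreactivity follow the gate of origin.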

Row | Sequence | polyreactivity (PSR sort gate)
1 | QVQLVESGGCLVQAGGSLRLSSAASGSTFYYYVMGLYRQAPGKERELVAAINSGGSTYYADSVQGRFTISRDNAKNTVYLQMNSLKPEDTAVYYCAKSCSYWYQYYYWGQGSQVTVSS | low polyreactivity
2 | QVQLVDSGGGLVQAGGSLRLSCAASGRTIPYYAMGWYRQAPGKERELVAAISSSGGRTYYADSVKGRFTISRDNAKNTVYLQMNSLKPEDTAVYYCNVDAWYPYQGFLVGYYYWGQGTQVTVSS | low polyreactivity
3 | QVQLVESGGGLVQAGGSLRLSCAASGRIFQYYAMGWYRQAPGKERELVAAISSSGGSTYYADSVKGRFTISRDNAKNTVYLQMNSLKPEDTAVYYCNADRNARQNRRDYWGQGTQVTVSS | high polyreactivity
4 | QVQLVESGGGLVQAGGSLRLSCASSGYTIPLYAMVWYRQAPGKERELVADINIGGASTYYADSVKGRFTISRDNAKYTVYLQMNSLKPEDTAVYYCAKEYYDGYFTTFEYDYWGQGTQVTVSS | low polyreactivity
5 | QVQLVESGGGLVQAGGNLRLSCAASGNIFYVYAMGWYRQAPGKERELVAAITRSGGRTYYADSVKGRFTISRDNAKNTVYLQMTSLKPEDTAVYYCAADRGVTRQKMDYWGQGTQVTVSS | low polyreactivity
6 | QVQLVESGGGLVQAGGSLRLSCAASGRTFKYNAMGWYRQAPGKERELVAAISSRGGSTYYADSVKGRFTISRDNAKNTVYLQMISLKPEDTAVYYGANATSSSEYGYDYWGQGTQVTVSS | high polyreactivity
7 | QVQLVESGGGLVQAGGSLRLSCAASGFTFGRYAMGWYRQAPGKERELVAAISYSGGSTYYADSVKGRFTISRDNAKNTVYLQMNSLKPEDTAVYYCAARDSYWSVYYWGQGTQVTVSS | high polyreactivity
8 | QVQLVESGGGLVQAGGSLRLSCAASGLTFEYYDMGWYRQAPGKERELVAAITGSDDSTYADSVKGRFTISRDNAKNTVYLQMNSLKPEDTAVYYCAASYRAWSGNYWGQGTQVTVSS | high polyreactivity
9 | QDQLVESGGGLVQAGGSLRLSCAASGFIFDTYAMGWYRQAPGKERELVAVISSGGSTYYADSVKGRFTISRDNAKNTVYLQMNSLKPEDTAVYYCAADSGYLGIYGDEYSWGQGTQVTVSS | low polyreactivity
10 | QVQLVESGGGLVQAGGSLRLSCAASGTTFGAYAMGWYRQARGKERELVAVITWNDGSTYYADSVKGRFTISRDNAKNTVYLHMNSLKPEDTAVYYCAAEYAVSWSAFDWNYYYWGQGTQVTVSS | high polyreactivity
11 | QVQLVESGGGLVQAGGSLRLSCAASGGIFDSYAMGWYRQAPGKERELVAAISRSGSTNYADSVKGRFTISRDNAKNTVYLQMYSLKPEDTAVYYCAASVRGIRYDYWGQGTQVTVSS | low polyreactivity
12 | QVQLVESGGGLVQAGGSLRLSCAASGFTFPYNDMGWYIQARGKEREFVAAISRSGTRTYYADSVKGRFTISRDNAKHTVYLQMNSLKPEDTAVYYCNARAAGYARLGPGFDYWGQGTQVTVSS | high polyreactivity
13 | QVQLVESGGGLVQAGGSLRLSSAASGITFRRYAMVWYRQAPGKERELVASITRGGSTSYADSVKGRFTISRDNAKNTVYLQMNSLKPEDTAVYYCNTRFGYQFDYYYWGQGTQVTVSS | high polyreactivity
14 | QVQLVESGGGLDQAGGSLRLTCAASGRIFGAYAMGWYRQAPGKEMELVAVISLSTGSTYYADSVKVRFTISRDNAKNTVYLQMKSLKPDDTAVYYCAVDTRFKWGWDYYYWGLGTQVTVSS | high polyreactivity
15 | QVQLVESGVGLVQAGGSLRLSCAASGLTFATNAMGWYRQAPGKERELVAAITGSGGSTNYADSVKGRFTISRDNAKNTVYLQMNSLKPEDTAVYYCAADLLWEPSRGYRGDYWGQGTQVTVSS | low polyreactivity
16 | QVQLVESAGGLVQAGGSLRLSCSASGSTFSSNGMGWYRKAPGKERELVAAITSVGSTNYADSVKGRFTISRDNAKNTVYLQMNSLKPEDTAVYYCNAERTAYGGGDYWGQGTQVTVSS | low polyreactivity
17 | QVQLVESGGGLVQAGGSLRLSCAASGRTFRYNAMGWYRQAPGKERELVAGITWRGGRTYYADSVKGRFTISRDNAKNTVYLQMNSLKPEDTAVYYCNTAGYYWLHYTMDYWGQGTQVTVSS | high polyreactivity
